Assays:
[1] = biological target: T1, plasminogen-depleted human Fibrinogen (EMD/Calbiochem) (human, UniProt P02671 20-629; P02675 31-491; P02679 27-437, limits assumed); experiment: ELISA on coated human fibrinogen; curve did not reach saturation
T1 construct: Bought protein, IgG-depleted, coated on ELISA plates; also called FGN
T1 sequence (looked up) 1: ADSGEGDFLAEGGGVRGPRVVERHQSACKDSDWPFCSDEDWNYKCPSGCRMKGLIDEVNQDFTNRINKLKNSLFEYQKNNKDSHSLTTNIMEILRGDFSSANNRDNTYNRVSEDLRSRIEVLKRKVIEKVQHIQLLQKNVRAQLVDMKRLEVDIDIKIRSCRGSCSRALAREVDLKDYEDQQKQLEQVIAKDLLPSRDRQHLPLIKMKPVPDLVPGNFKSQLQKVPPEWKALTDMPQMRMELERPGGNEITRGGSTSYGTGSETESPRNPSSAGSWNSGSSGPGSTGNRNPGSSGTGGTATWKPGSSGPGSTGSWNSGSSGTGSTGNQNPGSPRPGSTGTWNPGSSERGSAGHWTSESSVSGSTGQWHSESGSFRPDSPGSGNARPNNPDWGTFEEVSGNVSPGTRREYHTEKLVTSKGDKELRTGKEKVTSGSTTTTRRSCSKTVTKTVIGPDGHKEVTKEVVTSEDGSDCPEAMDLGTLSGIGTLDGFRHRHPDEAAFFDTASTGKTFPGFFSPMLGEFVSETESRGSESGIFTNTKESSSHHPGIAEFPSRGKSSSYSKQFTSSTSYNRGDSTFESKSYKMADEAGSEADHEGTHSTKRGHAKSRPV
T1 sequence (looked up) 2: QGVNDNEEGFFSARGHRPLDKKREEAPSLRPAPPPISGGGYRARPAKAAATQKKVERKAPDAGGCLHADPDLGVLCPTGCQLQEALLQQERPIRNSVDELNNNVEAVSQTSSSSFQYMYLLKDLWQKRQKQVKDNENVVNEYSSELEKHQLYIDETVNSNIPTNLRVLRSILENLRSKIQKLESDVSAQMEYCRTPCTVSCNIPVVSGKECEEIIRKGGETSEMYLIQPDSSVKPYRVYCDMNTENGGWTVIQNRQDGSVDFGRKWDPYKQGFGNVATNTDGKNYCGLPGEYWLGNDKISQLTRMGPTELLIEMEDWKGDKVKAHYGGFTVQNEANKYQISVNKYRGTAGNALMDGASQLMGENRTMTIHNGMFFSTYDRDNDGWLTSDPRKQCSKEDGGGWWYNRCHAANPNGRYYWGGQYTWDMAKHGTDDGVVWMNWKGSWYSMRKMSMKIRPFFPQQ
T1 sequence (looked up) 3: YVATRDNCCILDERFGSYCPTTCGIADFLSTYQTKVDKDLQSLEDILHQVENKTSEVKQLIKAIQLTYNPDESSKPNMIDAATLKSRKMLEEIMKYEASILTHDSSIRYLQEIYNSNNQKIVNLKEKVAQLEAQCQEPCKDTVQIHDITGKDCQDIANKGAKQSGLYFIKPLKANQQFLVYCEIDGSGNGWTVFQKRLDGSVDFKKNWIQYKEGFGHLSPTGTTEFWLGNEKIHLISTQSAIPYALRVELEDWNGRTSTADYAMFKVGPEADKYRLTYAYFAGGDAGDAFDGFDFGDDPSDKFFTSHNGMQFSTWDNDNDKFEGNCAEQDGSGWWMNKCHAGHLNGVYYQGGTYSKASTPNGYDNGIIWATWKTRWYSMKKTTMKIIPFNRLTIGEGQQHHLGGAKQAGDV
Procedure: (§1) The humanized antibodies affinity for fibrinogen, fibrin and P2 peptide were assessed by Enzyme-linked immunosorbent assays (ELISA)s (FIGS. 7-16). ELISAs for fibrinogen binding were performed using plasminogen-depleted human Fibrinogen (EMD/Calbiochem). […] IgG1-depleted Fibrinogen (FGN) in 20 mM HEPES/Saline buffer was added to each well of half of a 96-well Nunc Maxisorp™ ELISA plate. The ELISAs for fibrin binding were prepared by adding 50 mL of 20 mM HEPES/Saline buffer containing 14 mM CaCl₂, and 2 units thrombin to each well of the second half of the Nunc Maxisorp™ ELISA plate. 50 mL of 20 mg fibrinogen in 20 mM HEPES/Saline buffer were then added to a total volume of 100 mL. Plates were placed in a 37° C. incubator for 1 hour to allow fibrinogen to clot into fibrin and subsequently placed overnight into a plate dryer at 37° C. overnight. The ELISAs for P2 peptide were prepared by addition of […] of 30 mM P2 peptide in 20 mM HEPES/Saline buffer to each well of a 96-well Nunc Maxisorp™ ELISA plate. Plates were transferred to the plate dryer and dried overnight at 37° C. All ELISAs were preformed using Nunc MaxiSorp 96-well ELISA plates. Blocking was performed using 100 mL 5% BSA in DPBS are incubated at RT for 1 hour. Plates were washed 5× in DPBS containing 0.05% Tween-20 (EL406 was used for the addition of wash buffer only). 50 mL of primary antibodies was diluted in 0.5% BSA in DPBS, and the primary antibodies were added to the plates and incubated for 2 hours at 37° C. Plates were washed 5× in DPBS/Tween. 100 mL secondary antibodies were diluted in 0.5% BSA in DPBS. The secondary antibodies were then added to the plates and incubated for 1 hour at RT. Afterwards, plates were washed 5× in DPBS/Tween. 100 mL of TMB/E substrate solution was added, and the reaction was stopped after 5 minutes with 1N HCl.

[2] = biological target: T2, human Fibrin (human fibrinogen clotted on the plate with thrombin and CaCl2) (human, UniProt P02671 36-629; P02675 45-491; P02679 27-437); experiment: ELISA on human fibrin formed on the plate
T2 construct: Made in the ELISA wells from the human fibrinogen by thrombin and CaCl2, 1 hour at 37 C, then dried
T2 sequence (looked up) 1: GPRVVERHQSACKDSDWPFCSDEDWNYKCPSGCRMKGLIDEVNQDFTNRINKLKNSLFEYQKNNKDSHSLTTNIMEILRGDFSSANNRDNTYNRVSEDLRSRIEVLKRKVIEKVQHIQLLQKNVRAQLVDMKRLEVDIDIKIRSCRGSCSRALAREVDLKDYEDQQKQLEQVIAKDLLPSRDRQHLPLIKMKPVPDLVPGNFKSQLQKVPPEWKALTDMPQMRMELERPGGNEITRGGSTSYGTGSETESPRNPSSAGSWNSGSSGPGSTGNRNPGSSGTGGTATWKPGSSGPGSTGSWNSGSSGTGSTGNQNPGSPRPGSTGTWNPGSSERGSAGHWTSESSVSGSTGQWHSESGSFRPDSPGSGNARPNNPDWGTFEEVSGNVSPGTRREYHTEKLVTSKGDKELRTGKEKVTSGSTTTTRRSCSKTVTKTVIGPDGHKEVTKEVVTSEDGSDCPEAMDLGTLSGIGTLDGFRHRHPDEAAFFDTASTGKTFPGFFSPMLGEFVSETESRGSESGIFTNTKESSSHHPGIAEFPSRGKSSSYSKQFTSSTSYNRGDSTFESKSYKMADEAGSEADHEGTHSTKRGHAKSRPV
T2 sequence (looked up) 2: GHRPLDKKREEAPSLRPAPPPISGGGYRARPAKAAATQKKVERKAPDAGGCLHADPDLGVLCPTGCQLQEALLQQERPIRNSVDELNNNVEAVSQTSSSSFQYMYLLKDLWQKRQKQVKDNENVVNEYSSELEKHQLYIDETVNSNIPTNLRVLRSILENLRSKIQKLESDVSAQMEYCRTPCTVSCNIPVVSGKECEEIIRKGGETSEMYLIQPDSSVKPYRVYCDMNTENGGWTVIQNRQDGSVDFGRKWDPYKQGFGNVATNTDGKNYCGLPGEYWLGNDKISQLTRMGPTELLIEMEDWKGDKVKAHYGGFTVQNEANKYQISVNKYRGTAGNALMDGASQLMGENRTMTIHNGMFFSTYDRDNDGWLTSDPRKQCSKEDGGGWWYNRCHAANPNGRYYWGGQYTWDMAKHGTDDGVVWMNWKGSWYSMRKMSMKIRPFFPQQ
T2 sequence (looked up) 3: T1 sequence (looked up) 3
Procedure: as §1

[3] = biological target: T2, human Fibrin (human fibrinogen clotted …); experiment: ELISA on plate-coated human fibrin (fibrinogen clotted in the well with thrombin/CaCl2), antibody titrated, A450
Procedure: as §1, with “50 mL of primary antibodies was diluted in 0.5% BSA in DPBS, and the primary antibodies were added to the plates and incubated for 2 hours at 37° C. Plates were washed 5× in DPBS/Tween. 100 mL secondary antibodies were diluted in 0.5% BSA in DPBS. The secondary antibodies were then added to the plates and incubated for 1 hour at RT. Afterwards, plates were washed 5× in DPBS/Tween. 100 mL of TMB/E substrate solution was added, and the reaction was stopped after 5 minutes with 1N HCl.” left out

[4] = biological target: T3, P2 peptide comprising SEQ ID NO: 31 (human fibrin γ377-395) (human); experiment: ELISA on coated P2 peptide
T3 construct: Bought (CPC Scientific 920712); also called human P2 peptide
T3 peptide: YSMKKTTMKIIPFNRLTIG
Procedure: as §1

[5] = biological target: T3, P2 peptide comprising SEQ ID NO: 31 …; experiment: ELISA on plate-coated human P2 peptide, antibody titrated, A450
Procedure: as §1, with “50 mL of primary antibodies was diluted in 0.5% BSA in DPBS, and the primary antibodies were added to the plates and incubated for 2 hours at 37° C. Plates were washed 5× in DPBS/Tween. 100 mL secondary antibodies were diluted in 0.5% BSA in DPBS. The secondary antibodies were then added to the plates and incubated for 1 hour at RT. Afterwards, plates were washed 5× in DPBS/Tween. 100 mL of TMB/E substrate solution was added, and the reaction was stopped after 5 minutes with 1N HCl.” left out

B1: mouse monoclonal anti-fibrin antibody 5B8 (antibody, V domains shown)
VH: QVQLQQPGAELVRPGTSVKLSCKASGYTFTSYWIHWVKQRPGQGLEWIGLIDPSDSYTNYNQKFRGKATLTVDTSSSTAYMQLSSLTSEDSAVYYCASSDPTGCWGQGTTLTVSP
VL: DIVMTQAAFSNPITLGTSASMSCRSSKSLLHSSGITYLSWYLQKPGQSPQLLIYQMSNLASGVPDRFSSSGSGTDFTLRISRVEAEDVGVYYCAQNLELPLTFGAGTKLELK
notes: also called murine 5B8; Murine 5B8 (from client)
In the case of B1, the EC50 [1] is reported as about 1600 nM, the EC50 [2] is reported as about 82.6 nM and the “EC50 (read off the curve)” value [3] is reported as about 80 nM. For the same binder, the EC50 [4] was about 29 nM and the “EC50 (read off the curve)” value [5] was about 30 nM.

From patent US20240279357A1 (THERINI BIO, published 2024)
